In general, pKa refers to the negative logarithm of the acid dissociation constant.

From PMC6522968 come the findings set out here.

The target in the data set is Glu387 (UniProt position 387, YMYVTENGIAD). Nature of the data set: kinetics. As to conditions: 65 °C; 50.0 mM sodium citrate (pH 3.0–5.6), sodium phosphate (pH 6.0–8.0) and KCl/borate (pH 8.0–10.0); enzyme-substrate complex with 4Np-Glc, as described by the authors; folded, active enzyme.

“beta-glycosidase (Ssβ-gly) (Sulfolobus solfataricus (Saccharolobus solfataricus))”: the pKa amounted to 3.41 ± 0.13. To “beta-glycosidase (Ssβ-gly) H150A mutant (A150) (Sulfolobus solfataricus (Saccharolobus solfataricus); H150A)” belongs 5.29 ± 0.18.
